From patent publication US20210221894A1 come the findings set out here.

The target of the experiment is recombinant human DLL3 (ELISA coat) (human) (UniProt Q9NYJ7). In words: ELISA, plate coated with recombinant human DLL3 0.5 µg/ml; commercial reagent mAb. On the technique in general: An ELISA detects its analyte on a solid surface through an enzyme-linked reagent.
Chain of recombinant human DLL3 (ELISA coat) (human) (Q9NYJ7 27-492 limits assumed): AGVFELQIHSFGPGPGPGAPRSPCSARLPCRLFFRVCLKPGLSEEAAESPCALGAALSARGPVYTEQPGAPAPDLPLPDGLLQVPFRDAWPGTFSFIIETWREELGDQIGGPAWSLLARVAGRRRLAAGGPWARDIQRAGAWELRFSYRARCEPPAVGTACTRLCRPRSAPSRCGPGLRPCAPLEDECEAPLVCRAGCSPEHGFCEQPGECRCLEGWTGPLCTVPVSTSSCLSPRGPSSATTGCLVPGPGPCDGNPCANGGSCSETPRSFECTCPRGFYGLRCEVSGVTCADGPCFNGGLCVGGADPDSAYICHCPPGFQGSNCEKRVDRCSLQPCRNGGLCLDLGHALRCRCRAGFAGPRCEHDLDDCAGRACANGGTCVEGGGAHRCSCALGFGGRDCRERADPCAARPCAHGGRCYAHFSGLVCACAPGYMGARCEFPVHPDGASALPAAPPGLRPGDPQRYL

One may read the EC50 as the concentration that produces a half-maximal response. Take “positive control antibody for DLL3 (R&D Systems, Minneapolis, Minn., Cat #MAB4315)”: the EC50 is 0.1 nM.
